In patent US20130171153A1 (TRANSBIO, published 2013):

Tests used:
mouse PI16 = target: T1, mouse PI16 (mouse, UniProt Q9ET66 30-498, limits assumed); assay: not described
T1 construct: also called Mus musculus PI16
T1 sequence: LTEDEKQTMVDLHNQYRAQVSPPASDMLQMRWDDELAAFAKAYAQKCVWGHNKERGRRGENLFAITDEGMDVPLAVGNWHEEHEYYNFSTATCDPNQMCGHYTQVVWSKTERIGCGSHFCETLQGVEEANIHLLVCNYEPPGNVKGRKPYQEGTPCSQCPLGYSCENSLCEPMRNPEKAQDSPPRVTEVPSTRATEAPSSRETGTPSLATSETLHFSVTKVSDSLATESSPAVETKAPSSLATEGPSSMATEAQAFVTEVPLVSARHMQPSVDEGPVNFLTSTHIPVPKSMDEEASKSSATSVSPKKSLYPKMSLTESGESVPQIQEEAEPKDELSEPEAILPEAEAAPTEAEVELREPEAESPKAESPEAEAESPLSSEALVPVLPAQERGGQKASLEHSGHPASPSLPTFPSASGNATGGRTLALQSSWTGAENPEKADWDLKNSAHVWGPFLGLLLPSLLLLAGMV

[1] = target: T2, Abnova recombinant PI16 protein (expressed using a wheat germ cell free system) (UniProt Q6UXB8 1-463, limits assumed); assay: slot blot
T2 construct: Bought product; also called Rec. protein Abnova; Abnova recombinant protein
T2 sequence (looked up): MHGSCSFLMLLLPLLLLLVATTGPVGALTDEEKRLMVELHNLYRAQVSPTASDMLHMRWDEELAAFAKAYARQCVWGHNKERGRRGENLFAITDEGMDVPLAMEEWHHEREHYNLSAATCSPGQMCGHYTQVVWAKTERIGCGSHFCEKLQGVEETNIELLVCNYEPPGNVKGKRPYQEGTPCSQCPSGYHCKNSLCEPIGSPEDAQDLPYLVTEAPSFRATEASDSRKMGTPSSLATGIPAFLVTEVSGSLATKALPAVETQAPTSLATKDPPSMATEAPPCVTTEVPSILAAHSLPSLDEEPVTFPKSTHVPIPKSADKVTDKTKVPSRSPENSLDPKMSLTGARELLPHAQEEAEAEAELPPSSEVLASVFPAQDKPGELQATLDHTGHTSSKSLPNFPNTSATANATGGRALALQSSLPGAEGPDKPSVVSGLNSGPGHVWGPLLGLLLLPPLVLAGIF
Description: 100 μl of samples (as indicated) were loaded into each slot onto nitrocellulose membrane (Protran; Schleicher & Schuell) under vacuum. After loading, the blot was blocked for 1 hour at RT with 3% skim milk powder (Diploma) in PBS Tween 0.05% (block buffer). The primary Ab (secreted by CRCBT-02-001 or the polyclonal PI16 antibody from Abnova) was diluted in block buffer one in two and incubated on a platform rocker for 1 hour at RT. The blot was washed 3×5 minutes with PBS tween. Biotinylated horse anti mouse (Vector) 1/1000 diluted in block buffer was added and incubated for one hour at RT on rocking platform. The blot was washed 3×5 minutes with PBS tween. A dilution of 1/1000 SA:HRP (GE Healthcare) in block buffer was added and incubated for one hour at RT on rocking platform. The blot was washed 3×5 minutes with PBS tween. An appropriate volume of ECL solutions A and B (enough to cover membrane surface; ECL Advance Western Blotting Kit, GE Healthcare) was added and incubated for one minute with constant shaking. The blot was read immediately in a G:Box (Syngene) upon 15 seconds UV-exposure.
To determine the protein to which the monoclonal antibody binds, slot blots were performed.

[2] = target: T3, fragment of PI16 expressed by phage clone 4 (round 3) (human); assay: phage ELISA of PI16 gene fragment clones
T3 construct: also called R3 4
T3 chain: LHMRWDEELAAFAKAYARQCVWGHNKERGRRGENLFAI

[3] = target: T4, fragment of PI16 expressed by phage clone 7 (round 3) (human); assay: phage ELISA of PI16 gene fragment clones
T4 construct: also called R3 7
T4 chain: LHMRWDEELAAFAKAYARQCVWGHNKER

[4] = target: T5, fragment of PI16 expressed by phage clone 10 (round 3) (human); assay: phage ELISA of PI16 gene fragment clones
T5 construct: also called R3 10
T5 chain: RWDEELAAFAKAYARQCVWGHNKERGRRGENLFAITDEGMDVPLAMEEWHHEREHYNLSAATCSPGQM

[5] = target: T6, fragment of PI16 expressed by phage clone 12 (round 3) (human); assay: phage ELISA of PI16 gene fragment clones
T6 construct: also called R3 12
T6 chain: LHMRWDEELAAFAKAYARQ

[6] = target: T7, fragment of PI16 expressed by phage clone 15 (round 3) (human); assay: phage ELISA of PI16 gene fragment clones
T7 construct: also called R3 15
T7 chain: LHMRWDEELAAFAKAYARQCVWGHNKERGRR

[7] = target: T8, PI16-Fc (extracellular domain of human PI16, aa 28-443, tev-protease cleavage site, C-terminal human Fc) (human, UniProt P01857-1 104-330 = IgG part); assay: SPR (ProteOn XPR36), mAb captured by anti-mouse IgG on GLM chip, PI16-Fc as analyte, Langmuir global fit
T8 construct: domain: Fc; also called recombinant PI16-Fc; native PI16-Fc; not shown: tev-protease cleavage site
T8 sequence (P01857 other isoform, or with tags, fused parts or gaps): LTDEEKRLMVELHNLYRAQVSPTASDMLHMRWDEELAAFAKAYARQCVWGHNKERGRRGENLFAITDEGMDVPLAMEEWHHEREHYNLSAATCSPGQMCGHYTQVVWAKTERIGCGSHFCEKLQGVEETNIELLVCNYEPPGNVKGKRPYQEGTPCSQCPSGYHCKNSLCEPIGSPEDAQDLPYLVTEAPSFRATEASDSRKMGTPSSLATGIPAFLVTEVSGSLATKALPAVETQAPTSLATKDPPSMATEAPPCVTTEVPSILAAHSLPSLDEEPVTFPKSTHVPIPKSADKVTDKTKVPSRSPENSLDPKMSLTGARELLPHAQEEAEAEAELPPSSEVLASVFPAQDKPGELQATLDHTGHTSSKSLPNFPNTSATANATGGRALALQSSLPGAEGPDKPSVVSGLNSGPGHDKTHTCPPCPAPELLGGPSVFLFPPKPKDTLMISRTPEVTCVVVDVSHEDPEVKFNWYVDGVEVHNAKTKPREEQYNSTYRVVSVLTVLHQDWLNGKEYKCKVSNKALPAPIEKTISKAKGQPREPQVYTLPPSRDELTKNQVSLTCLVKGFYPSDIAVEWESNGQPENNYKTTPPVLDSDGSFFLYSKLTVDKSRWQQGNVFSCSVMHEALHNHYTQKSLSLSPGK
Description: A proteOn sensor chip (GLM) was activated by flowing a mixture of 0.2 M EDC and 0.05 M sulpho-NHS over the chip ([…] at 30 μL/min for 5 minutes). Rabbit anti-mouse IgG whole molecule (Sigma M-7023) was then coupled to the chip in the vertical orientation by flowing 150 μL of a 50 μg/mL solution in 10 mM acetate buffer (pH 4.5) at 30 μL/min. The remaining coupling sites were then deactivated by flowing 150 μL of 1 M ethanolamine-HCl (pH 8.5) at 30 μL/min. Mouse monoclonal anti PI16 IgG was then allowed to flow over and be captured by the coupled anti-mouse IgG antibody by flowing 150 μL of 100 μg/mL IgG at 25 μL/min over a single channel of the sensor chip in the horizontal direction. […] PBS Tween 20 (0.005%) alone was passed over the remaining channel and served as a reference. Binding sensorgrams were collected and analysed with the ProteOn Manager 2.1×PR36 software using the Langmuir kinetic model to fit the data and determine the affinity constant (KD).
The published method (Nahshol et al., 2008) was used to measure the kinetics of the PI16 mab by anti-mouse capture. This is a relatively mild method coupling method and the association and dissociation curves and affinity measurement was performed with 4 dilutions of the PI16-Fc (FIG. 43 and Table 9). The data fitted well to a Langmuir kinetic model using global fit (all the curves fitted simultaneously).

[8] = target: T8, PI16-Fc (extracellular domain of human …); assay: SPR (ProteOn XPR36), PI16-Fc amine-coupled to GLC chip, Fab as analyte, Langmuir global fit
Description: A ProteOn sensor chip (GLC) was activated by flowing a mixture of 0.2 M N-ethyl-N′-(3-dimethylaminopropyl) carbodiimide (EDC) and 0.05 M sulfo-N-hydroxysuccinimide (sulfo-NHS) over the chip (150 μL at 30 μL/min for 5 minutes). Recombinant PI16-Fc was coupled to the chip in the vertical orientation by flowing 150 μL of a 50 μg/mL solution in 10 mM acetate buffer (pH 4.5) at 30 μL/min. The remaining activated carboxyl group were then deactivated by flowing 150 μL of 1 M ethanolamine-HCl (pH 8.5) at 30 μL/min. […] PBS Tween 20 (0.005%) alone was passed over the remaining channel. Binding sensorgrams were collected and analysed with the ProteOn Manager 2.1×PR36 software using the Langmuir kinetic model to fit the data and determine the affinity constant (KD).
This coupling method was performed using various pHs to optimise the coupling of PI16-Fc to the GLC chip. The optimal coupling pH was 4.5. The association and dissociation curves and affinity measurement was performed with 3 dilutions of the PI16 Fab shown in FIG. 42 and Table 8. The data fitted well to a Langmuir kinetic model using global fit (all the curves fitted simultaneously).

B1: antibody produced by the hybridoma designated CRCBT-02-001 (ATCC PTA-10685) (antibody, V domains shown)
VH: FGGGLVQPGGSMKLSCVASGFTFSYYWMNWVRQSPEQGLEWIAEIRLQSNDYPTHYAESVKGRFTISRDDSKNSVYLQMNNLRPEDTGIYYCACRYADYFDHWGQGTTLTVSS
VL: VMTQSPAILSVYPGEKVTMTCRASLSVSYMHWCQQKPGSSPKSWIYATSNLASGVPARFSGSGSGTSYSLTISRVEAEDAATYYCQQWSSNPFTFGSGTKLEIKR
notes: constant regions are not; Used as hybridoma supernatant or as Protein G purified antibody; also called CRCBT-002-001; P1G5-P2B3
binding result (mouse PI16): no binding | binding result [1]: no binding | binding result [2]: binds | binding result [3]: binds | binding result [4]: binds | binding result [5]: binds | binding result [6]: binds | Kd [7]: 2.56 nM | koff [7]: 0.000149 s⁻¹ | kon [7]: 58200 M⁻¹ s⁻¹

B2: CRCBT-02-001 Fab (Fab, V domains shown)
VH: B1 VH
VL: B1 VL
notes: also called PI16 Fab; Anti-PI16 Fab fragment
Kd [8]: 1.25 nM | koff [8]: 0.000372 s⁻¹ | kon [8]: 297000 M⁻¹ s⁻¹
